For 1 molecule, dFRET results are on record in PMC5365143.

The target in this assay is EGFP-HDQ74 (mutant huntingtin exon 1 with 74 glutamine residues). The assay can be described thus: FRET or BRET. A general note: BRET reads energy transfer from a luciferase to a nearby fluorophore.

B1: AavLEA1-mCherry (natural protein)
chain: MSSQQNQNRQGEQQEQGYMEAAKEKVVNAWESTKETLSSTAQAAAEKTAEFRDSAGETIRDLTGQAQEKGQEFKERAGEKAEETKQRAGEKMDETKQRAGEMRENAGQKMEEYKQQGKGKAEELRDTAAEKLHQAGEKVKGRD
Consider B1, for which the dFRET came to 3%.
